This is an account of results in patent US20110312881A1 (AMUNIX, published 2011).

The experiment concerns the target T1, XTEN_AM875-hGH (human, UniProt P01241 27-217).
T1 construct: Negative control in the IL-1 receptor ELISA
The experiment can be described thus: ELISA, plate-coated mouse IL-1R/Fc. As for the experimental part:
To evaluate the activity of the IL-1ra-containing XTEN fusion proteins, an ELISA based receptor binding assay was used. Here the wells of a Costar 3690 assay plate were coated overnight with 50 ng per well of mouse IL-1 receptor fused to Fc domain of human IgG (IL-1R/Fc, R&D Systems). Subsequently the wells were blocked with 3% BSA to prevent nonspecific interactions with the solid phase. After thoroughly washing the wells, a dilution series of either IL-1ra-XTEN_AM875, XTEN_AM875-IL-1ra, or IL-1ra (anakinra) was applied to the wells. The binding reaction was allowed to proceed for 2 hr at room temperature. Unbound Il-1ra was removed by repeated washing. The bound IL-1ra ad IL-1ra-XTEn fusions were detected with a biotinylated anti-human II-1ra antibody and a horseradish peroxidase-conjugated streptavidin. […] The absorbance of each well at 450 nm and 570 nm was recorded on a SpectrMax 384Plus spectrophotometer. The corrected absorbance signal (Abscorr=Abs₄₅₀ₙₘ−Abs₅₇₀ₙₘ) was plotted as a function of IL-1ra-XTEN or IL-1ra concentration to produce a binding isotherm as shown in FIG. 17.
To estimate the binding affinity of each fusion protein for the IL-1 receptor, the binding data was fit to a sigmoidal dose-response curve. From the fit of the data an EC50 (the concentration of IL-1ra or IL-1ra-XTEN at which the signal is half maximal) for each construct was determined.

T1 sequence (P01241 other isoform, or with tags, fused parts or gaps limits assumed): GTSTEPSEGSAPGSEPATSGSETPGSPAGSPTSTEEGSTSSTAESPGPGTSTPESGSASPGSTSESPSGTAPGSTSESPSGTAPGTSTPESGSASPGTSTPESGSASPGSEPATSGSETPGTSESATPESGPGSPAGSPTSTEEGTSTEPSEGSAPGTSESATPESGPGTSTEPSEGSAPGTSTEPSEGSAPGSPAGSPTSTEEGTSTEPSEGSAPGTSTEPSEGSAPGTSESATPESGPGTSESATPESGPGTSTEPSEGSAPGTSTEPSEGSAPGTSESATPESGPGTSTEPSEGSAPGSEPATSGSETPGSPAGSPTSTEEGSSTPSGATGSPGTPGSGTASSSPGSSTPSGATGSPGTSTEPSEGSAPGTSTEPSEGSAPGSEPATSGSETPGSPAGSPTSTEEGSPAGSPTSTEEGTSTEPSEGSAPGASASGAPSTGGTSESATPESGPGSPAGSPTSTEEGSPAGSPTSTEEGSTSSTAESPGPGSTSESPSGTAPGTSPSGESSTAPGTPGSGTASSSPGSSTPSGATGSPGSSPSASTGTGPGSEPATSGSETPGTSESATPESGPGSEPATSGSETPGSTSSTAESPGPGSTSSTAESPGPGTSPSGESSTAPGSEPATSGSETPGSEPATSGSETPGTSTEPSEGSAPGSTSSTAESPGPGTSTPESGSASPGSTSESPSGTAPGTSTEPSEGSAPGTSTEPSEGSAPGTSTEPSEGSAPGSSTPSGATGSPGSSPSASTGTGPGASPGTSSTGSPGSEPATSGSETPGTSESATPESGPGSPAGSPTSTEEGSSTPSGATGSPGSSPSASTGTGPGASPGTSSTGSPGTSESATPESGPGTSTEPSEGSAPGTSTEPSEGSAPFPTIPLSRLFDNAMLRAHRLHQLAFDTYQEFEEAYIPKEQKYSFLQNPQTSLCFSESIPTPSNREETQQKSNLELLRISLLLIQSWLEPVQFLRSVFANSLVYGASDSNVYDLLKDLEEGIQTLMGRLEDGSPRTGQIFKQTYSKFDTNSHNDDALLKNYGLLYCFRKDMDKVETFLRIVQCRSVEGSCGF

B1: mouse IL-1 receptor fused to Fc domain of human IgG (IL-1R/Fc, R&D Systems) (Fc fusion, UniProt P13504 20-338, looked up)
chain: LEIDVCTEYPNQIVLFLSVNEIDIRKCPLTPNKMHGDTIIWYKNDSKTPISADRDSRIHQQNEHLWFVPAKVEDSGYYYCIVRNSTYCLKTKVTVTVLENDPGLCYSTQATFPQRLHIAGDGSLVCPYVSYFKDENNELPEVQWYKNCKPLLLDNVSFFGVKDKLLVRNVAEEHRGDYICRMSYTFRGKQYPVTRVIQFITIDENKRDRPVILSPRNETIEADPGSMIQLICNVTGQFSDLVYWKWNGSEIEWNDPFLAEDYQFVEHPSTKRKYTLITTLNISEVKSQFYRYPFICVVKNTNIFESAHVQLIYPVPDFK
notes: Bought reagent, coated on the plate at 50 ng per well; not shown: Fc domain of human IgG
Take B1: the binding result was “no binding”.
